From the DeepSol protein solubility set

experiment: soluble on expression in E. coli; label from the status in PepcDB or PDB records

| Sequence | soluble on expression in E. coli |
| --- | --- |
| LTSSNALRGDAHSRLAAHRGLLERTSRTTRVAGILRDAIIDGTFRPGARLSEPDICAALDVSRNTVREAFQILIEDRLVAHELNRGVFVRVPTAEDITELYICRRVVECAGVNGFDPATGDLSRVAEALDLADERYAVEDWTGVGTADIHFHSALASLNNSNRIDELMRSVWNEARLVFHVMDDAHRFHGPYLTRNHEIYDALAAGNTEAAGQLLKTYLEDAEAQILGAYRPVSG | soluble |
| GSVSMSGGFLRDDHLEFALHLHRRLAEAVPDGEVIWSPYSVACALGVLAAGARATTRTELTTLLGTDPAPLLAALDRAVTDSPDLASRTVLWVSADVPVRSSFRATMHDRPDSDVRTADFRTNPEGVRATVNADIADATRGMIRELLPQGAVTPDLRAILTNALWAKARWTTPFEAHLTRAGTFRTPRGPKRVPFMHRTKTMPYATARGWRMVTLHAHDELAVDVLLPPGTNAAAVPTAPLLTALHRRSASTSVELALPRFELTQPHQLVEVLAEAGVRTLFTASADLSGISTVPLYVDTVIHQARLRVDERGAEGAAATAAMMLLAGAMPPRRTIRFSVDRPFHIVVRRRGAILFLGSIADPHDPGPAQ | soluble |
| FDGIFHTVKLLEPIQQSNADPAASFALFQQKFPNLKRVANSTLNTFDVYNLLSGWKSSLTAYLNQVLALQQRIKAADQIFPNQKETLPKDENPNIFEVLGAYGGKGFFPTLGSNGLHLPPQLFQFFRDFQLSSFTIKDFEVALVSEPDIVQHDKVRYAFQVQ | not soluble |
| MGSDKIHHHHHHMVLSLSSHNVIQYLQEAGLCSSEDDASDKSELPGSSKNNSDLLVTLADNRKLLVKQEHNVKNNDVAPRELFQEWLFHQLLQQFPVLGNISAIAPLVVHFDEENSILVRNYLSEYLKLATFYHNNEIFPQEIATAIGTTLAGLHRATYNRREYRDFMATAPQGEFRYGFYNPAQGVESIGPEIFGTVPTEALKFYLLYQQSESLESAIADLAYDWNPCCLTHNDLKLNNILVHSRWKKLDNCLVRLINWEACSWGDPAFDLGTLLASYLRIWLNSLVVDPTIELQESLHLALTPLESLQPSIIALIRAYLNAFPMILEYRSDFIVRVIQFAGLALIHQIQDMITCRKSFNNTDICMLQVAKSLLTMPQQGVLTIFGISESEILNPVGKVHKLPQPVKEPQLLRLYYEKTRLRGC | not soluble |
| MGSDKIHHHHHHNGPIVKGSKNYITKKENLEHFNDISMSGSANIIYQQDSSSRIEIYGSDNIVELLETKVNGKTLNIKFKKNVNIIDKGKLEIKVFSPDLNGLTLNGSGGILFANGIHTEGDLKVTINGSGNLGGSTFDTGHLAISIHGSGDVRLKQIDSKTCSASISGSGNITLDGMTGAAKYNISGSGNIKAADLEATDVYAGISGSGNISCFVNGKLGGHVSGSGNVAYKGNPQAIDFPHKKLRKLD | not soluble |
| MGSDKIHHHHHHMKTAILDRFVFSDEVRDIIENAPEIIIPESRKEILDLAIAGRDLFEVGYEVPGKGFVVEATVTRCKNGLVVNYPEPYMRRRDPNALVVGDNLETDKPRFRERFGKEFEPIRQETFEWLKKQELILLPFMAGGYDYGYPAVLIAPKNAGFFVGGLADLQFFVPASEVPENFKPKLYMFLAPPFRHTHFDGKQVVVHYRHNSHYEIFSYNLYPGPSAKKGVYGFLLHVGEKEKWVTAHASAVKVITPYENELVIMHEGASGGGKSEILEEIHREPDGRIKLAENIVTGEKFYMELKQSCVLMPVADDMFMCHPKLQTGKKLVAKDAEAGWFIRVDHITEYGSAPDLERLTIHPPEPLIFLNIYAVPNSTALIWEHIEDEPGKPCPNPRVIIPKRFMKNAVSEPVKVDVRSFGVRTPPCTKEKPTYGIVGLMQILPPALAWLWRLVAPRGHANPSIVSTKGMTSEGVGSFWPFSSGKMVRLANILLEQIIDTPETRYILVPNQYIGAYKVGFMPEWIAREYLSRRGGVRFRPDQLVPSKCSLLGFSLKEMKIEGNTIPKELLQPHLQSEVGEEAYEKGAQELKDFFKRELKKFLTEDLNPVGREIIQCCLDDGSLDDYLKIIPMNF | not soluble |
| MKGLYPESVISRFDFAVTEDNKIKMLEFNSDTPTFIVECFQMNGKVCGNLGYDDPNSDQERLLSSGVTKAVMEATKGLDNPNVVFTAHHEHIEDWNTTMYLSQLCHVENKVVPMSELRITKDALVDKDGAKIDVLYRQTYPIEDLIEDQDPETGDLVGVELLQLVKAGKLFIINPLSAFLLQPKSIQCLIWGLAEEEAFYTNEEQQWIKEYMLPTYLEPDLFLGKGSFVQKPSFGREGDTITIRDKDENIMLQNAHQTYKASLPIFQKYIELPVVSLETEKGIEKLSYVFGSFLIAGKASSIGIRAGEKITGNESYYLPVGIKRRGKND | not soluble |
| DIELTQSPATLSVTPGNSVSISCRASQSLVNEDGNTYLFWYQQKSHESPRLLIKYASQSISGIPSRFSGSGSGTDFTLSINSVETEDLAVYFCQQITDWPFTFGGGTKLEIKRADAAPTVSIFPPSSEQLTSGGASVVCFLNNFYPKDINVKWKIDGSERQNGVLNSWTDQDSKDSTYSMSSTLTLTKDEYERHNSYTCEATHKTSTSPIVKSFNRNEC | soluble |
| VALTVYYPPRVVSLEEPELRLEHCIEFVVRGNPPPTLHWLHNGQPLRESKIIHVEYYQEGEISEGCLLFNKPTHYNNGNYTLIAKNPLGTANQTINGHFLKEPFPVDEVSPTPPITVT | soluble |
| MSTSTAPSSASSDADSLNHDENPIKAVIFDYGEVMWMQSRNVHVYRKIEEDNKLFDNSLIPTLVSKELSSILPKGFQEDLLTGIYTAKDFDRLFLSAYNRKFGSQVESLKFFSATEYDNDAVYEEAVLTACQKLRERGVKTILMLDTYHVDEKRNGRRIPNMEKYFDHVIESCKEGVKKPDPRFYQIALDCVDVQPEEVIYIDDSKINCESAAVLGIRYIQVFNSMDMLEDLQEILGFDLD | not soluble |
| MGSDKIHHHHHHMSSIFEKYSVRRVINASGKMTILGVSTVDKEVIEAIGEGCKNFFIIEELINKTGEYIANLLGCESALIVSSASAGIAQSVGAMIAKDDMSLVYNVNNPKKQVKREIIIPKGHNVDYGVPVEVMIRLGGGEVVEAGYANMCNKEHIIREINENTAAIMYIKSHHCVQKSMLSVLDAVQVAKEYNLPLIVDAAAEEDLNVYYELGADLVIYSGAKAIEGPSSGLVIGKKKYIDNVKLQSKGIGRAMKIGKENIVGLTCAIERYISNDKVTLKEMEDKLNPFIDKINTIKGVSASITRDSAGREILRGEIDFNEDIINKSTQQIINELRSGEIAIYTRDYKANEGKIEIDIRSVTGSDLDTIYNRIKNIVES | not soluble |
| MGSDKIHHHHHHVAKQKFKITNWPTYNKALINRGSITFWLDDEAIQAWYESATPSSRGRPQRYSDLAITTVLVIKRVFRLTLRAAQGFIDSIFTLMNVPLRCPDYTSVSRRAKSVNVSFKTFTRGEIAHLVIDSTGLKVFGEGEWKVKKHGQERRRIWRKLHLAVDSNTHEIICADLSLNNVTDSEAFPGLIRQTHRKIRAAAADGAYDTRLCHDELRRKKISALIPPRKGAGYWPGEYADRNRAVANQRMTGSNARWKWTTDYNRRSIAETAMYRVKQLFGGSLTLRDYDGQVAEAMALVRALNKMTKAGMPESVRIA | not soluble |
| MSKRRYLTGKEVQAMMQAVCYGATGARDYCLILLAYRHGMRISELLDLHYQDLDLNEGRINIRRLKNGFSTVHPLRFDEREAVERWTQERANWKGADRTDAIFISRRGSRLSRQQAYRIIRDAGIEAGTVTQTHPHMLRHACGYELAERGADTRLIQDYLGHRNIRHTVRYTASNAARFAGLWERNNLINEKLKREEV | not soluble |
| MGSDKIHHHHHHKETGNMPEIKKQPIASAVPDFNADSAYAYVANQVAFGPRVPNTAAHKACGDYLASELKRFGAKVYQQEAILTAYDGTKLEARNIIGSFDPENSKRVLLFAHWDSRPYSDHDPDPSKHRTPLDGADDGGSGVGALLEIARQIGQKAPGIGIDIIFFDAEDYGTPEFVTDYTPDSWCLGTQFWAKNPHVPNYTAEYGILLDMVGGKNATFFKEQQSLRAAAPIVEMVWSAARDLGYGKYFINAAGGAITDDHQYVISGRNIPSIDIINYDPESKTGFASYWHTQKDNMENIDRETLKAAGQTVLEVIYNR | not soluble |
| MAAQLDPSSEFAALVKQLQREPDNPGLKQAVVKRLPEMQLLAKTNSLALFRLAQVYSPSSSQHKQMILQSAAQGCTNAMLSACEILLKSGAANDLITAAHYMRLIQSSKDSYIIGLGKKLLEKYPDFAEELKSKEVPYQSTLRFFGVQSESNKENEEKIINRPTV | not soluble |
